Data from US20250298032A1 (INSTITUTE FOR RESEARCH IN BIOMEDICINE, published 2025).

Key:
CCL13 N-loop peptide [1] = molecular target: T1, CCL13 N-loop peptide (human, biotin-Ahx at the N-terminus; amidated at the C-terminus); test: ELISA, biotinylated CCL13 N-loop peptide on neutravidin plate, OD450 nm
T1 peptide: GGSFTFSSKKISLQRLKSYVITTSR
Experimental: (§1) To evaluate the antibodies' binding to chemokine peptides, 96-well plates (ThermoFisher, 442404) were coated with 50 μl per well of a 2 μg/ml Neutravidin (Life Technologies, 31000) solution in PBS, overnight at room temperature. Plates were washed 4 times with washing buffer (PBS+0.05% Tween-20 [Sigma-Aldrich]) and incubated with 50 μl per well of a 50 nM biotinylated peptide solution in PBS for 1 h at room temperature. After washing 4 times with washing buffer, plates were incubated with 200 μl per well of blocking buffer (PBS+2% BSA+0.05% Tween-20) for 2 h at room temperature. Plates were then washed 4 times with washing buffer, and serial dilutions of monoclonal antibodies or plasma were added in PBS +0.05% Tween-20 and incubated for 1 h at room temperature. To screen for the presence of anti-chemokine IgGs, plasma samples were assayed (unless otherwise stated) at 1:50 starting dilution followed by 3 fourfold serial dilutions (1:200, 1:800, 1:3200). Monoclonal antibodies were tested at 5 μg/ml starting concentration followed by 11 threefold serial dilutions. […] The developing reaction was stopped with 50 μl per well of a 1 M H₂SO₄ solution, and absorbance was measured at 450 nm with an ELISA microplate reader (BioTek) with Gen5 software. […]

CCL8 N-loop peptide = molecular target: T2, CCL8 N-loop peptide (human, biotin-Ahx at the N-terminus; amidated at the C-terminus); test: ELISA, biotinylated CCL8 N-loop peptide on neutravidin plate, anti-human IgG-HRP, OD450 nm
T2 construct: Synthetic peptide (GenScript), captured on Neutravidin-coated ELISA plates
T2 peptide: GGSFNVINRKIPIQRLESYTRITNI
Experimental: (§2) To evaluate the antibodies' binding to chemokine peptides, 96-well plates (ThermoFisher, 442404) were coated with 50 μl per well of a 2 μg/ml Neutravidin (Life Technologies, 31000) solution in PBS, overnight at room temperature. Plates were washed 4 times with washing buffer (PBS+0.05% Tween-20 [Sigma-Aldrich]) and incubated with 50 μl per well of a 50 nM biotinylated peptide solution in PBS for 1 h at room temperature. After washing 4 times with washing buffer, plates were incubated with 200 μl per well of blocking buffer (PBS+2% BSA+0.05% Tween-20) for 2 h at room temperature. Plates were then washed 4 times with washing buffer, and serial dilutions of monoclonal antibodies or plasma were added in PBS +0.05% Tween-20 and incubated for 1 h at room temperature. To screen for the presence of anti-chemokine IgGs, plasma samples were assayed (unless otherwise stated) at 1:50 starting dilution followed by 3 fourfold serial dilutions (1:200, 1:800, 1:3200). Monoclonal antibodies were tested at 5 μg/ml starting concentration followed by 11 threefold serial dilutions. Plates were subsequently washed 4 times with washing buffer and incubated with anti-human IgG secondary antibody conjugated to horseradish peroxidase (HRP) (GE Healthcare, NA933) at a 1:5000 dilution in PBS+0.05% Tween-20. Finally, after washing 4 times with washing buffer, plates were developed by the addition of 50 μl per well of the HRP substrate TMB (ThermoFisher, 34021) for 9 min. The developing reaction was stopped with 50 μl per well of a 1 M H₂SO₄ solution, and absorbance was measured at 450 nm with an ELISA microplate reader (BioTek) with Gen5 software. A positive control (broadly reactive plasma from donor CLM70) and a negative control (uninfected participant) samples were included in each experiment. The Area Under the Curve (AUC) was obtained from two independent experiments and plotted with GraphPad Prism.

CCL7 N-loop peptide [2] = molecular target: T3, CCL7 N-loop peptide (human, biotin-Ahx at the N-terminus; amidated at the C-terminus); test: ELISA, biotinylated CCL7 N-loop peptide on neutravidin plate, OD450 nm
T3 peptide: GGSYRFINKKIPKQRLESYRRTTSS
Experimental: as §1

CCL11 N-loop peptide [3] = molecular target: T4, CCL11 N-loop peptide (human, biotin-Ahx at the N-terminus; amidated at the C-terminus); test: ELISA, biotinylated CCL11 N-loop peptide on neutravidin plate, OD450 nm
T4 peptide: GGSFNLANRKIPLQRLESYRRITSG
Experimental: as §1

CCL2 N-loop peptide [4] = molecular target: T5, CCL2 N-loop peptide (human, biotin-Ahx at the N-terminus; amidated at the C-terminus); test: ELISA, biotinylated CCL2 N-loop peptide on neutravidin plate, OD450 nm
T5 peptide: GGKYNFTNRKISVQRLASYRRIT
Experimental: as §1

[5] = molecular target: SARS-CoV-2 Spike (S) protein (SARS-CoV-2, UniProt P0DTC2 14-1208); test: ELISA on coated Spike protein (FIG. 2E)
CCL7 N-loop peptide [6] = molecular target: T3, CCL7 N-loop peptide; test: ELISA on biotinylated N-loop peptide (FIG. 2D)
Experimental: as §2

CCL2 N-loop peptide [7] = molecular target: T5, CCL2 N-loop peptide; test: ELISA on biotinylated N-loop peptide (FIG. 2D)
Experimental: as §2

CCL13 N-loop peptide [8] = molecular target: T1, CCL13 N-loop peptide; test: ELISA on biotinylated N-loop peptide (FIG. 2D)
Experimental: as §2

CCL11 N-loop peptide [9] = molecular target: T4, CCL11 N-loop peptide; test: ELISA on biotinylated N-loop peptide (FIG. 2D)
Experimental: as §2

CXCL13 N-loop peptide = molecular target: T6, CXCL13 N-loop peptide (human, biotin-Ahx at the N-terminus; amidated at the C-terminus); test: ELISA, biotinylated CXCL13 N-loop peptide on neutravidin plate, anti-human IgG-HRP, OD450 nm
T6 construct: Synthetic peptide, captured on Neutravidin-coated ELISA plates
T6 peptide: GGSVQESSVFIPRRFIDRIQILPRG
Experimental: as §2

B1: aCCL8.001 (antibody, human IgG1, V domains shown)
VH: QVQLQESGPGLVKPAETLSLTCTVSGDSVSSESYFWGWIRQSPRKGLEWLGAVWYNGDTYYNPSVGGRVTISMDTSMNEISLRLSSVTAADTAVYFCATEHCIDEICSPASDSWGQGTLVTVSS
VL: DIVMTQSPDSLAVSLGERATINCKSSQSVFFSSNNENCLAWFQQKPGQPPKLLIHWASTRASGVPDRFSGSGSGTDFTLTISSLQAEDVAVYYCHQYLKAPRTFGQGTKVEIK
notes: kappa (VK4-1); also called VH4-39/VK4-1 antibody; anti-CCL8 antibody
In the case of B1, the binding result (CCL13 N-loop peptide [1]) is reported as “no binding (tested: 5000 ng/ml)”, the “EC50 (read off the curve)” value (CCL8 N-loop peptide) is reported as roughly 10 ng/mL and the binding result (CCL7 N-loop peptide [2]) is reported as “no binding (tested: 5000 ng/ml)”. B1: no binding (tested: 5000 ng/ml) (CCL11 N-loop peptide [3]); no binding (tested: 5000 ng/ml) (CCL2 N-loop peptide [4]).

B2: aCCL8.003 (antibody, human IgG1, V domains shown)
VH: QLQLQESGPGLVKPSETLSLTCTVSGDSVSSSFYFWGWVRQPPGKGLEWIGSIYYTGDTYYKPSLKSRVTISMNTSKNQFSLRLSSVTAADTAVYYCATEFCTSGICHPASDSWGQGTLVTVSS
VL: DIVMTQSPDSLAVSLGERATINCKSSQSVLLSANNKNCLAWFQQKPGQPPKLLIYWASTRESGVPDRFSGSGSGTDFTLTISSLQAEDVAIYYCQQYYKAPRTFGQGTKVEIK
notes: also called VH4-39/VK4-1 antibody; anti-CCL8 antibody
In the case of B2, the “EC50 (read off the curve)” value (CCL8 N-loop peptide) is reported as roughly 10 ng/mL, the binding result [5] is reported as “no binding” and the binding result (CCL7 N-loop peptide [6]) is reported as “no binding (tested: 5 µg/ml starting concentration)”. B2: no binding (tested: 5 µg/ml starting concentration) (CCL2 N-loop peptide [7]); no binding (tested: 5 µg/ml starting concentration) (CCL13 N-loop peptide [8]); no binding (tested: 5 µg/ml starting concentration) (CCL11 N-loop peptide [9]).

B3: aCCL8.004 (antibody, human IgG1, V domains shown)
VH: QVQLQESGPGLVKPAETLSLTCIVSGDSVSSPSYFWGWIRQPPGKGLEWIGATWFNGDTYYNPSLQSRVSISMDMSLNRIYLSLNSVTAADTAVYFCATEHCFDEICSPASDSWGQGTLVTVSS
VL: DIVMTQSPDSLAVSLGERATISCMSSQSVFFSSNNENCLAWFQQKPGQPPKLLIYWASTRASGVPDRFSGSGSGTDFTLTISSLQAEDVAVYYCQQYLKAPRTFGQGTKVEIK
notes: as for B2
B3 was tested, and the “EC50 (read off the curve)” value (CCL8 N-loop peptide) was roughly 10 ng/mL, the binding result [5] was “no binding” and the binding result (CCL7 N-loop peptide [6]) was “no binding (tested: 5 µg/ml starting concentration)”. B3: no binding (tested: 5 µg/ml starting concentration) (CCL2 N-loop peptide [7]); no binding (tested: 5 µg/ml starting concentration) (CCL13 N-loop peptide [8]); no binding (tested: 5 µg/ml starting concentration) (CCL11 N-loop peptide [9]).

B4: aCCL8.005 (antibody, human IgG1, V domains shown)
VH: QLQLQESGPGLVKPSETLSLTCTVSGDSVSSSFYFWGWVRQPPGKGLEWIGGTYYTGDTYHNPSLKSRLTISMDTSKNQFSLRLSSVTAADTAVYYCATEFCINGICRPASDSWGQGTLVTVSS
VL: DIVMTQSPDSLAVSLGERATINCKSSQSVLLSSNNKNCLAWFQQRPGQPPKLLIYWASTRESGVPDRFSGSGSGTDFTLTISSLQAEDVAIYYCQQYYKAPRTFGQGTKVEIK
notes: as for B2
With B4 the binding result (CCL13 N-loop peptide [1]) was “no binding (tested: 5000 ng/ml)”, the “EC50 (read off the curve)” value (CCL8 N-loop peptide) was roughly 10 ng/mL and the binding result (CCL7 N-loop peptide [2]) was “no binding (tested: 5000 ng/ml)”. B4: no binding (tested: 5000 ng/ml) (CCL11 N-loop peptide [3]); no binding (tested: 5000 ng/ml) (CCL2 N-loop peptide [4]).

B5: aCXCL13.001 (antibody, human IgG1, V domains shown)
VH: QVQLVESGGGLVKPGGSLRLSCAASGFMFSDYYMSWIRQAPGKGLEWISYIGNSDASTFYADSVKGRFAISRDNAKNLLFLQMNSLRAEDTAVYYCARDGYSHSRGYSYGRKDAFDIWGRGTMVTVSS
VL: EIVLTQSPATLSLSPGERATLSCRASQSVSSYLAWYQQKPGQAPRLLIYAASQRATGIPARFSGTGSGTDFTLTISSLEPEDSAVYYCQQRGNWPGTFGQGTKVEIK
notes: also called anti-CXCL13 N-loop antibody
B5: binds (CXCL13 N-loop peptide).

B6: aCXCL13.002 (antibody, V domains shown)
VH: EVQLVESGGGLVKPGGSLRLSCAASGFTFSSYSMNWVRQAPGKGLEWVSSISSSSSYIYYADSVKGRFTISRDNAKNSLYLQMNSLRAEDTAVYYCARDGIYDYAPVDYWGQGTLVTVSS
VL: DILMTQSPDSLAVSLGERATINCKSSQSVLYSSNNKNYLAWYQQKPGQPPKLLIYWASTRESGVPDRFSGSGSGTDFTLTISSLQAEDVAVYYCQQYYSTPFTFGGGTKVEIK
notes: as for B5
B6: binds (CXCL13 N-loop peptide).
